Data on 6 molecules can be found in PMC5486051, “BrWRKY65, a WRKY Transcription Factor, Is Involved in Regulating Three Leaf Senescence-Associated Genes in Chinese Flowering Cabbage”.

Data set [1] deals with T1, GST-BrWRKY65 (Brassica rapa var. parachinensis …, UniProt A0ACM8RC22 1-261). Briefly: EMSA; shift abolished dose-dependently by unlabeled self competitor (100x, 1000x); LightShift Chemiluminescent EMSA Kit; native polyacrylamide gel (Figure 5 legend; Methods says SDS-PAGE); buffer, salt, pH and temperature not stated. The conditions noted are these: protein: recombinant; tags: GST (N-terminal, pGEX-4T-1); label: 5' biotin. (In general: Mobility shift assays separate free from complexed probe on a gel.)

Data set [2] deals with T1, GST-BrWRKY65. The data set is described as follows: competition; unlabeled mutant, 100-1000x excess over N3; LightShift Chemiluminescent EMSA Kit; native polyacrylamide gel (Figure 5 legend; Methods says SDS-PAGE); buffer, salt, pH and temperature not stated. Particulars: protein: recombinant; tags: GST (N-terminal, pGEX-4T-1); label: unlabeled.
Data set [3] concerns the target T1, GST-BrWRKY65. The data set is described as follows: competition; unlabeled mutant, 100-1000x excess over N2; LightShift Chemiluminescent EMSA Kit; native polyacrylamide gel (Figure 5 legend; Methods says SDS-PAGE); buffer, salt, pH and temperature not stated. The conditions noted are these: protein: recombinant; tags: GST (N-terminal, pGEX-4T-1); label: unlabeled.

Data set [4] concerns the target T1, GST-BrWRKY65. The data set is described as follows: competition; unlabeled mutant, 100-1000x excess over N1; LightShift Chemiluminescent EMSA Kit; native polyacrylamide gel (Figure 5 legend; Methods says SDS-PAGE); buffer, salt, pH and temperature not stated. The conditions noted are these: protein: recombinant; tags: GST (N-terminal, pGEX-4T-1); label: unlabeled.

T1 sequence (A0ACM8RC22 entry or part of it): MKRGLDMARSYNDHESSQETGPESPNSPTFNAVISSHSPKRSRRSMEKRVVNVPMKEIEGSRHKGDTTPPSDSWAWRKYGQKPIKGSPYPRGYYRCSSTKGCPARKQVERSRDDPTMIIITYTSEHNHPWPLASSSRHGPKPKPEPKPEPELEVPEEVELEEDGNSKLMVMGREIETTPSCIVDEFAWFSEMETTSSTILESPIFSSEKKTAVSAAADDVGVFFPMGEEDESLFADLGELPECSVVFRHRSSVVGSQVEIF

B1: BrDIN1 promoter W-box probe (dsDNA)
DNA 1: CGAGAGACCTGATTAAGAACATCTGACTTCAATTAAACCAATCACACTAC
DNA 2: GTAGTGTGATTGGTTTAATTGAAGTCAGATGTTCTTAATCAGGTCTCTCG
With B1, in data set [1], the binding result is reported as “binds”.

B2: BrDIN1 mutant W-box competitor (dsDNA)
DNA 1: CGAGAGACCTGATTAAGAACATAAAAAATCAATTAAACCAATCACACTAC
DNA 2: GTAGTGTGATTGGTTTAATTGATTTTTTATGTTCTTAATCAGGTCTCTCG
Take B2: the binding result in data set [2] is recorded as “no binding”.

B3: BrSGR1 promoter W-box probe (dsDNA)
DNA 1: TTTCACTCGTATCGTAAGATTGTTGACTCCAACACGCAAACAACAAAAAC
DNA 2: GTTTTTGTTGTTTGCGTGTTGGAGTCAACAATCTTACGATACGAGTGAAA
B3: the binding result in data set [1] is reported as “binds”.

B4: BrSGR1 mutant W-box competitor (dsDNA)
DNA 1: TTTCACTCGTATCGTAAGATTGAAAAAACCAACACGCAAACAACAAAAAC
DNA 2: GTTTTTGTTGTTTGCGTGTTGGTTTTTTCAATCTTACGATACGAGTGAAA
On to B4, for which the binding result in data set [3] is reported as “no binding”.

B5: BrNYC1 promoter W-box probe (dsDNA)
DNA 1: GATCGCCAGATTGCAGTGACGGTTGACTTGAATAAAGAAAAATGAAAAAA
DNA 2: TTTTTTCATTTTTCTTTATTCAAGTCAACCGTCACTGCAATCTGGCGATC
As to B5, the binding result in data set [1] is “binds”.

B6: BrNYC1 mutant W-box competitor (dsDNA)
DNA 1: GATCGCCAGATTGCAGTGACGGAAAAAATGAATAAAGAAAAATGAAAAAA
DNA 2: TTTTTTCATTTTTCTTTATTCATTTTTTCCGTCACTGCAATCTGGCGATC
With B6, in data set [4], the binding result was “no binding”.
